“Also recorded” adds a separate entry of the source.
What was measured:
λ-DNA = details: reported, enzyme used alone; cited from earlier work
[1] = test system: substrate DNA (template-primer); assay: DNA polymerase activity on different forms of substrate DNA (template-primer); assay type: biochemical
Procedure: The DNA polymerase activity was assayed using calf thymus DNA (manufactured by Worthington) activated by DNase I treatment (activated DNA) as a substrate. DNA activation and assay of DNA polymerase activity were carried out by the method described in DNA Polymerase from Escherichia coli, 263-276 (authored by C. C. Richardson), published by Harper & Row, edited by D. R. Davis.
An assay of enzyme activity was carried out by the following method. Specifically, 50 μl of a reaction solution [20 mM Tris-HCl (pH 7.7), 15 mM MgCl2, 2 mM 2-mercaptoethanol, 0.2 mg/ml activated DNA, 40 μM each of dATP, dCTP, dGTP and dTTP, 60 nM [^3H]-dTTP (manufactured by Amersham)], containing a sample for assaying its activity, was prepared and reacted at 75° C. for 15 minutes. A 40 μl portion of this reaction mixture was then spotted onto a DE paper (manufactured by Whatman) and washed with 5% Na2HPO4 five times. The remaining radioactivity on the DE paper was assayed using a liquid scintillation counter. The amount of enzyme which incorporated 10 nmol of [^3H]-dTMP per 30 minutes into the substrate DNA, assayed by the above-described enzyme activity assay method, was defined as one unit of the enzyme.
Next, in order to compare the selectivity of the DNA polymerase of the present invention for different forms of substrate DNA, the following template-primer was examined. Aside from the activated DNA used for conventional assay of the activity, those prepared as substrates include a thermal-denatured DNA prepared by treating the activated DNA at 85° C. for 5 minutes; M13-HT Primer prepared by annealing a 45-base synthetic deoxyribooligonucleotide of the sequence as shown by SEQ ID NO:6 in Sequence Listing as a primer to the M13 phage single stranded DNA (M13mp18 ssDNA, manufactured by Takara Shuzo Co., Ltd.); M13-RNA Primer prepared by annealing a 17-base synthetic ribooligonucleotide of the sequence as shown by SEQ ID NO:7 in Sequence Listing as a primer to the same M13 phage single stranded DNA; Poly dA-Oligo dT prepared by mixing polydeoxyadenosine (Poly dA, manufactured by Pharmacia) and oligodeoxythymidine (Oligo dT, manufactured by Pharmacia) in a 20:1 molar ratio; and Poly A-Oligo dT prepared by mixing polyadenosine (Poly A, manufactured by Pharmacia) and oligodeoxythymidine in a 20:1 molar ratio.
The DNA polymerase activity was assayed using these substrates in place of the activated DNA. The relative activity of each substrate when the activity obtained in the case of using an activated DNA as a substrate is defined as 100 is shown in Table 1. For comparison, the Pfu DNA polymerase and the Taq DNA polymerase derived from Thermus aquaticus (TaKaRa Taq, manufactured by Takara Shuzo Co., Ltd.) were also examined in the same manner.

[2] = test system: 32P-labeled DNA fragment from pUC119 vector; assay: Associated exonuclease activity; assay type: biochemical; details: 75° C.
Procedure: The exonuclease activity of the DNA polymerase of the present invention was assessed as follows: As a substrate for 5′→3′ exonuclease activity detection, a DNA fragment labeled with ^32P at the 5′-end was prepared by a process comprising digesting a pUC119 vector (manufactured by Takara Shuzo Co., Ltd.) with SspI (manufactured by Takara Shuzo Co., Ltd.), separating the resulting 386 bp DNA fragment by agarose gel electrophoresis, purifying the fragment, and labeling with [γ-^32P]-ATP and polynucleotide kinase. Also, as a substrate for 3′→5′ exonuclease activity detection, a DNA fragment labeled with ^32P at 3′-end was prepared by a process comprising digesting a pUC119 vector with Sau3AI, separating the resulting 341 bp DNA fragment by agarose gel electrophoresis, purifying the fragment, and carrying out a fill-in reaction using […] (manufactured by Amersham) and the Klenow fragment (manufactured by Takara Shuzo Co., Ltd.). […] The radioactivity existing in the supernatant was assayed using a liquid scintillation counter, and the amount of degradation by the exonuclease activity was calculated.
In the figure, the abscissa indicates the reaction time, and the ordinate indicates the ratio of radioactivity released into the supernatant relative to the radioactivity contained in the entire reaction mixture. […]

activated DNA [3] = assay: Optimum pH and temperature of DNA polymerase activity; assay type: biochemical, calf; details: Tris-HCl in place of potassium phosphate; highest pH level used in the assay
Procedure: However, because the double stranded structure of the activated DNA used as a substrate for activity assay is destructed at higher temperatures, an accurate optimum temperature for the activity of the above enzyme has not been assayed. […] This level of the heat stability allows the use of the above enzyme for PCR method.
The optimum pH was then assayed. […], and preparing a reaction mixture comprising 20 mM potassium phosphate, 15 mM MgCl2, 2 mM 2-mercaptoethanol, 0.2 mg/ml activated DNA, 40 μM each of dATP, dCTP, dGTP and dTTP, and 60 nM [^3H]-dTTP. The results are shown in FIG. 3, wherein the abscissa indicates the pH, and the ordinate indicates the radioactivity incorporated in high-molecular DNA.

activated DNA [4] = assay: Optimum KCl and MgCl2 concentrations for DNA polymerase activity; assay type: biochemical, calf
Procedure: For a DNA polymerase preparation forming a complex of the translation products of ORF3 and ORF4 obtained in Example 3, namely the first DNA polymerase-constituting protein and the second DNA polymerase-constituting protein in a ratio at 1:1, optimum MgCl2 and KCl concentrations were firstly assayed. The DNA polymerase activity was assayed in a reaction system containing 20 mM Tris-HCl, pH 7.7, 2 mM 2-mercaptoethanol, 0.2 mg/ml activated DNA, and 40 μM each of dATP, dGTP, dCTP and dTTP in the presence of 2 mM MgCl2, while the KCl concentration was step by step increased from 0 to 200 mM KCl for each 20 mM increment. […] Next, the DNA polymerase activity was assayed in the same reaction system but in the presence of 60 mM KCl in this time, while the MgCl2 concentration was step by step increased from 0.5 to 25 mM MgCl2 for each 2.5 mM increment, to compare at each concentration.

[5] = substrate M13-HT primer, activated DNA = 100
[6] = substrate M13-RNA primer, activated DNA = 100
[7] = substrate activated DNA (defined as 100)
[8] = substrate poly A-Oligo dT, activated DNA = 100
[9] = substrate poly dA-Oligo dT, activated DNA = 100
[10] = substrate thermal-denatured DNA, activated DNA = 100

## Taq DNA Polymerase: Taq DNA polymerase derived from Thermus aquaticus (TaKaRa Taq, manufactured by Takara Shuzo Co., Ltd.) [reference compound]
λ-DNA
  strand length of DNA amplifiable by PCR: difficult to amplify a DNA fragment of not less than 10 kbp
[1]; [5]
  Relative Activity: 90
[1]; [6]
  Relative Activity: 38
[1]; [7]
  Relative Activity: 100
[1]; [8]
  Relative Activity: 0.063
[1]; [9]
  Relative Activity: 290
[1]; [10]
  Relative Activity: 130

## DNA Polymerase of the Present Invention: complex of first (ORF3, SEQ ID NO:2) and second (ORF4, SEQ ID NO:4) DNA polymerase-constituting proteins from Pyrococcus furiosus
[2]; 3′-end labeled 341 bp fragment
  3′→5′ exonuclease activity: potent; also recorded: of the same level as that of the Pfu DNA polymerase
[2]; 5′-end labeled 386 bp fragment
  5′→3′ exonuclease activity: no 5′→3′exonuclease activity was observed
Activated DNA [3]
  pH of maximum activity: 8.02
[1]; [5]
  Relative Activity: 170
[1]; [6]
  Relative Activity: 52
[1]; [7]
  Relative Activity: 100
[1]; [8]
  Relative Activity: 0.085
[1]; [9]
  Relative Activity: 94
[1]; [10]
  Relative Activity: 340
Activated DNA [4]; in the absence of KCl
  MgCl2 concentration of maximum activity: 17.5 mM
Activated DNA [4]; in the presence of 2 mM MgCl2, 20 mM Tris-HCl pH 7.7
  KCl concentration of maximum activity: 60 mM
Activated DNA [4]; in the presence of 60 mM KCl
  MgCl2 concentration of maximum activity: 10 mM

From US6395526B1, “DNA polymerase” (Takara Shuzo Co., Ltd., priority 1995, dated 2002)
